Laboratory results published in article PMC6078998.

Key:
[1] = molecular target: recombinant human HIRA(661–1017) (human) (UniProt P54198); experiment: AUC; sedimentation velocity, c(S) model in SEDFIT, 141,995×g; buffer with 300 mM NaCl, and also with 150 mM NaCl with consistent values
[2] = molecular target: recombinant human HIRA(661–1017) (human) (UniProt P54198); experiment: AUC; sedimentation equilibrium of the HIRA(661–1017)–CABIN1 FL complex isolated from a size-exclusion peak, slightly lower rotor speeds; 4 °C, 20 mM Tris pH 8.0, 300 mM NaCl, 1 mM TCEP; SEDPHAT ABBB model (A the HIRA trimer, B a CABIN1 monomer), apparent constants

Chain of CABIN1 full length (FL), recombinant, Q9Y6J0 1-2220 (natural protein) (Q9Y6J0 whole entry): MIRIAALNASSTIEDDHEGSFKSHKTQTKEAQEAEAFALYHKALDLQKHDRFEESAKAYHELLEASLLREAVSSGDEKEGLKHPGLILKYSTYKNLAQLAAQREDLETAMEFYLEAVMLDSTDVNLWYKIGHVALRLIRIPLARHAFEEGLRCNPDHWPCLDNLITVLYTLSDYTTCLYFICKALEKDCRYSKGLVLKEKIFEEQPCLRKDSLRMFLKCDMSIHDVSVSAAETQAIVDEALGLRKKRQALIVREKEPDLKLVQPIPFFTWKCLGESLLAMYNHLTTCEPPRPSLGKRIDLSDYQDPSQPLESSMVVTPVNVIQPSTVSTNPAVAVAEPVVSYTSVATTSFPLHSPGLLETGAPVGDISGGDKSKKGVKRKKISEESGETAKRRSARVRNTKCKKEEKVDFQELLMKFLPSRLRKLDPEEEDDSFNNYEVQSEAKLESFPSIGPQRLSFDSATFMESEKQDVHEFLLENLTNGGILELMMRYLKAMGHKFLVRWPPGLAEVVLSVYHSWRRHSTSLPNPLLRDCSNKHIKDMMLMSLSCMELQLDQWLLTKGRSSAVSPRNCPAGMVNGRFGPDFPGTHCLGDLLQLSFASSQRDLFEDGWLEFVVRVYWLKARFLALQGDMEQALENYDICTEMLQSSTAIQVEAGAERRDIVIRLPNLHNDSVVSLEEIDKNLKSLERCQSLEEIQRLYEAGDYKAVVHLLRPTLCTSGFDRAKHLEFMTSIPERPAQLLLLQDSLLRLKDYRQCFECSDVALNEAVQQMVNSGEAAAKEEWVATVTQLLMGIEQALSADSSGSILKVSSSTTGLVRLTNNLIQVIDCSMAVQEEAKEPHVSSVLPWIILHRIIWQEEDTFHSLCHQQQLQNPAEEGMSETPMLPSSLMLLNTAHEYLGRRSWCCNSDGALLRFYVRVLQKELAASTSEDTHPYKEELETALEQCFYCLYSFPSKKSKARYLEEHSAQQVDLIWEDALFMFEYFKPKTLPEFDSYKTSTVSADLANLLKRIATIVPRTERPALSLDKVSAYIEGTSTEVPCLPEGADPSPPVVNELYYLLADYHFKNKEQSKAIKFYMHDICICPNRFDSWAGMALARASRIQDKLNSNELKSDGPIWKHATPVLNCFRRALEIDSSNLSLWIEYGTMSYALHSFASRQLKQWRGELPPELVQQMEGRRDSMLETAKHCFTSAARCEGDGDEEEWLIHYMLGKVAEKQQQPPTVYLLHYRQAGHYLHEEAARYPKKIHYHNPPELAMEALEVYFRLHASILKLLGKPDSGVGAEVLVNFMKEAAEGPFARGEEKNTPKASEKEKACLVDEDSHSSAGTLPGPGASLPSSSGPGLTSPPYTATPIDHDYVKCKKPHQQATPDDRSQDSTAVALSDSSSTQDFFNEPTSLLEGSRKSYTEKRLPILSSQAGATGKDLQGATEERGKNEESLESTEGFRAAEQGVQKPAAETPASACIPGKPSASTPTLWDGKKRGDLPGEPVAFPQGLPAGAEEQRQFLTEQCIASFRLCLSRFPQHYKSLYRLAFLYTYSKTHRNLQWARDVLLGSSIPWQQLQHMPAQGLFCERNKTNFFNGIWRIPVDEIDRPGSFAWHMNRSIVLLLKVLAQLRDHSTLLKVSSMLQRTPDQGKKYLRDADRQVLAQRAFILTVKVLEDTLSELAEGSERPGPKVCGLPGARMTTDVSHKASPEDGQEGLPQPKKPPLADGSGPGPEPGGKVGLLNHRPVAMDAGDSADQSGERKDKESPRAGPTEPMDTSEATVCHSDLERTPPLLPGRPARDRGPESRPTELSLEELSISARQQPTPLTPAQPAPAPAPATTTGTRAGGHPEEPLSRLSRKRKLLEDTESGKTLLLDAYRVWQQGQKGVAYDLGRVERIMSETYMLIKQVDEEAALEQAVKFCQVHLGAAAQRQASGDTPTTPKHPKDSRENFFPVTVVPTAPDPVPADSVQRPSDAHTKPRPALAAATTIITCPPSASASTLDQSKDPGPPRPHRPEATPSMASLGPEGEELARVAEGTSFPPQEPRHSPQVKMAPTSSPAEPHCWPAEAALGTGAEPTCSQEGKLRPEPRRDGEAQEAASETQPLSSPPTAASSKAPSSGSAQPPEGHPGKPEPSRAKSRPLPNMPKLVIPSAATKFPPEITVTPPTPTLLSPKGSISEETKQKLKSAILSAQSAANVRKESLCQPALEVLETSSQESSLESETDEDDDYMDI
Chain of recombinant human HIRA(661–1017) (human) (P54198 661-1017): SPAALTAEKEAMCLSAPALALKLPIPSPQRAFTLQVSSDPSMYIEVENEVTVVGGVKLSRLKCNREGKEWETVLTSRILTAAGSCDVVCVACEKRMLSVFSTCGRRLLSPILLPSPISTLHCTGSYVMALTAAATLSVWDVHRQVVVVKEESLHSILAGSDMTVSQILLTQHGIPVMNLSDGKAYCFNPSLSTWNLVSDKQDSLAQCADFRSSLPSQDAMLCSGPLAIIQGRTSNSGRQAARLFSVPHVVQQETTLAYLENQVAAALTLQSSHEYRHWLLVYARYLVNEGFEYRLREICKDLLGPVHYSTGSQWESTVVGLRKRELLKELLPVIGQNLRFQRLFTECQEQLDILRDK

stoichiometry N (CABIN1 per HIRA trimer) [1]: 2
Kd, third binding event [2]: 10 µM
apparent Kd, first two binding events [2]: < 0.001 µM
stoichiometry N (CABIN1 per HIRA trimer) [2]: 2
Substance: CABIN1 full length (FL), recombinant, Q9Y6J0 1-2220 (natural protein)
